The text below walks through data of patent publication US20230183354A1 (IMMIOS HOLDING B V, published 2023).

Assay [1] has as its target human CD103 (integrin Alpha-E) / human integrin Beta-7 heterodimer on cells (human) (UniProt P38570). The experiment in a line: flow cytometry, tumor digest OC433, AF647-conjugated control Fab, direct read-out. In general terms: A flow cytometer gives signals particle by particle.
Assay [2] has the same target. Nature of the assay: flow cytometry, tumor digest OC433, CD3 positive cells; Control panel Q2 0,53.
For assay [3] the target is unchanged. The experiment in a line: flow cytometry competition on CD103+CD8+ T cells; pre-incubation with unlabeled 01A; table n=1.
Assay [4] has the same target. The experiment in a line: flow cytometry competition on CD103+CD8+ T cells; pre-incubation with unlabeled 06A; table n=1.
For assay [5] the target is unchanged. Nature of the assay: flow cytometry competition on CD103+CD8+ T cells; pre-incubation with unlabeled 06A; table n=2.
For assay [6] the target is unchanged. Nature of the assay: flow cytometry competition on CD103+CD8+ T cells; pre-incubation with unlabeled 03A; table n=1.
Assay [7] has the same target. Nature of the assay: flow cytometry competition on CD103+CD8+ T cells; pre-incubation with unlabeled IgG (f2); table n=1.
Assay [8] shares this target. Nature of the assay: flow cytometry competition on CD103+CD8+ T cells; pre-incubation with unlabeled MCA708 (f4); table n=2.
Assay [9] shares this target. Nature of the assay: flow cytometry competition on CD103+CD8+ T cells; pre-incubation with unlabeled 05A; table n=2.
For assay [10] the target is unchanged. The experiment in a line: flow cytometry competition on CD103+CD8+ T cells; pre-incubation with unlabeled 07A; table n=1.
Assay [11] shares this target. Nature of the assay: flow cytometry competition on CD103+CD8+ T cells; pre-incubation with unlabeled 02A; table n=1.
The target is the same in assay [12]. The experiment in a line: flow cytometry competition on CD103+CD8+ T cells; pre-incubation with unlabeled 01A; table n=2.
Assay [13] has the same target. The experiment in a line: flow cytometry competition on CD103+CD8+ T cells; pre-incubation with unlabeled IgG (f2); table n=2.
The target is the same in assay [14]. Nature of the assay: flow cytometry competition on CD103+CD8+ T cells; pre-incubation with unlabeled 02A; table n=2.
For assay [15] the target is unchanged. The experiment in a line: flow cytometry, tumor digest OC433, CD3 positive cells; Control panel Q3 2,12.
Assay [16] shares this target. Nature of the assay: flow cytometry competition on CD103+CD8+ T cells; pre-incubation with unlabeled 03A; table n=2.
For assay [17] the target is unchanged. Nature of the assay: flow cytometry competition on CD103+CD8+ T cells; pre-incubation with unlabeled 05A; table n=1.
Assay [18] shares this target. Nature of the assay: flow cytometry competition on CD103+CD8+ T cells; pre-incubation with unlabeled BERACT; table n=2.
The target is the same in assay [19]. The experiment in a line: flow cytometry competition on CD103+CD8+ T cells; pre-incubation with unlabeled BERACT; table n=1.
For assay [20] the target is unchanged. The experiment in a line: flow cytometry competition on CD103+CD8+ T cells; pre-incubation with unlabeled 07A; table n=2.
Assay [21] has the same target. The experiment in a line: flow cytometry competition on CD103+CD8+ T cells; pre-incubation with unlabeled MCA708 (f4); table n=1.
For assay [22] the target is unchanged. Nature of the assay: flow cytometry, tumor digest OC433, non-labeled control Fab with secondary anti-Fab reagent (APC); secondary antibody alone Q3 2,44.
Assay [23] has the same target. The experiment in a line: flow cytometry, tumor digest OC433, non-labeled control Fab with secondary anti-Fab reagent (APC); secondary antibody alone Q2 4,65.
For assay [24], the target named is T1, human CD103 (integrin Alpha-E) / human integrin Beta-7 heterodimer on cells (human, UniProt P38570 19-1179; P26010 20-798).
T1 construct: The same id is used for native CD103 on human CD103+CD8+ T cells (tumor digests, TGF-beta induced T cells); the assay field tells which cells; also called hCD103/hBeta7; CHO.K1-hCD103/hBeta7
Nature of the assay: cell ELISA on CHO.K1-humanCD103/beta7 cells, abs 450-610.

Assay [25] has as its target T2, human integrin Alpha-4 / human integrin Beta-7 heterodimer on CHO-K1 cells (human, UniProt P13612 34-1032; P26010 20-798).
T2 construct: Used as the control for reactivity with hBeta7; also called hAlpha4/hBeta7; CHO.K1-hAlpha4/hBeta7
The experiment in a line: cell ELISA on CHO.K1-humanAlpha4/beta7 cells, abs 450-610. Background: In an ELISA, binding on a coated surface is turned into a signal by an enzyme label.

For a further assay, the target named is T3, murine CD103 (mouse, UniProt Q60677 20-1167).
T3 construct: whole, on cells; also called murine CD103+ T cells; mouse CD103
T3 sequence (looked up): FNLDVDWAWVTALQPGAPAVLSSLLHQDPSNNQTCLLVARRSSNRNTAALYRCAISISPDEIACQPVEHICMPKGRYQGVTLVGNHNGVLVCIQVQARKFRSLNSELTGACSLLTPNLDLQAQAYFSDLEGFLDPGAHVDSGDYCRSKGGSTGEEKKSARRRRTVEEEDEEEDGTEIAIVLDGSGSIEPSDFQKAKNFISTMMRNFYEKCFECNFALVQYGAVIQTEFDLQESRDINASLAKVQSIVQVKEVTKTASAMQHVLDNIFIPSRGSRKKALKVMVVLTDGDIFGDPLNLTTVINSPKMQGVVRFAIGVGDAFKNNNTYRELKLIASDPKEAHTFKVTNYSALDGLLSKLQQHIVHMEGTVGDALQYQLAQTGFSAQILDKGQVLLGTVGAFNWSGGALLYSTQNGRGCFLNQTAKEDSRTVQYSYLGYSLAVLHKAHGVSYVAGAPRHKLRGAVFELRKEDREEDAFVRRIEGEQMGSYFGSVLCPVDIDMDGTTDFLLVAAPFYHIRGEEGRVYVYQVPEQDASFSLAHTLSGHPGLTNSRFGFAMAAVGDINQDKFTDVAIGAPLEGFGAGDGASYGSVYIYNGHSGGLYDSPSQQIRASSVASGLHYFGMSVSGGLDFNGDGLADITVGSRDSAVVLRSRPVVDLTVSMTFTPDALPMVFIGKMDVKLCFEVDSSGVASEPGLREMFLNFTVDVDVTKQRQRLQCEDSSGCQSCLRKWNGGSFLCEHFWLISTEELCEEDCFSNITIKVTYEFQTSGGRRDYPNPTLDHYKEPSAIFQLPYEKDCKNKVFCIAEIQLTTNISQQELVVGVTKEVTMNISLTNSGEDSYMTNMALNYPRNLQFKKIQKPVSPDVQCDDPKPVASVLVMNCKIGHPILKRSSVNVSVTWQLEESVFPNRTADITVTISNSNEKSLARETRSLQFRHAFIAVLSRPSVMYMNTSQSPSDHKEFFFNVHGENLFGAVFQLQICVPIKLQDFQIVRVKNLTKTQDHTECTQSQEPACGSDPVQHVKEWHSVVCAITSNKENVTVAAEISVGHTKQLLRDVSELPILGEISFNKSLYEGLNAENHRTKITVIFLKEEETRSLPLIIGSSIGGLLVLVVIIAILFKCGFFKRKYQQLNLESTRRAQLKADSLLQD
Nature of the assay: flow cytometry on mouse spleen and thymus cells. As for the experimental part:
Additional aliquots were stained with relevant isotype controls or as fluorescence minus one controls (“FMO” controls are cells stained with all the fluorophores minus one fluorophore; the relevant isotype controls contain either a directly labeled unspecific isotype antibody or an unspecific isotype antibody combined with secondary detection reagent). Percentage binding of fluorescently labeled mAbs was determined using flow cytometry. Maximum binding was set at 100%. […] Data analysis was performed with FlowJo v10 (Tree Star) and surface receptor levels were expressed as mean fluorescent intensity (MFI).

In the case of Alexa647.mFab control, in assay [1], the % of cells in Q2 (CD8+ CD103+) is 2.58% and the % of cells in Q3 (CD8- CD103+) stood at 1.29%.
Take CD103 (Ber-ACT8) antibody (BD): in assay [2], the % of CD3 positive cells in Q2 (CD8+ CD103+) was determined as 13.4%. Besides, the % binding of the fluorescently labeled mAb (IgG pre-incubation = 100) in assay [3] turned out to be 0.9%; in assay [4], 96.6%; in [5], 103%; in assay [6] it was 97%; in assay [7], 100%; in assay [8] it was 109%. The % binding of the fluorescently labeled mAb (IgG pre-incubation = 100) in assay [9] was 60.6%; in [10] it was 27.2%; in [11], 1.4%; in assay [12] it was 2.3%; in assay [13] it was 100%; in [14], 2.9%. The % binding of the fluorescently labeled mAb (IgG pre-incubation = 100) was 101% in [16]; 50.9% in [17]; 3.5% in assay [18]; 1.9% in assay [19]; 29.2% in assay [20]; 115% in assay [21]. The molecule further yielded a % of CD3 positive cells in Q3 (CD8- CD103+) in assay [15] of 7.75%.
hFab isotype: in [22], the % of cells in Q3 (CD8- CD103+) amounted to 3.71%. In assay [23], this molecule registered a % of cells in Q2 (CD8+ CD103+) of 4.64%.

B1: hCD103.02A (antibody, V domains shown)
VH: EVQLQESGPSLVKPSQTLSLTCSVTGDSITSGYWNWIRKFPGNKLEYMGYITYSGSTYYNPSLKSRISITRDTSKNQYYLQFNSVTTEDTATYYCARGYYGSDAMDYWGQGTSVTVSS
VL: DIVMTQSHKFMSTSVGDRVSITCKASQDVSTAVAWYQQKPGQSPKLLIYSASYRYTGVPDRFTGSGSGTDFTFTISSVQAEDLAVYYCQQHYSPPWTFGGGTKLEIK
notes: also called clone 02A
Consider B1, for which the “EC50 (read off the curve)” value in assay [24] is around 10 ng/mL. In addition, the binding result (in assay [25]; with murine CD103) was “no binding” throughout.

One may read the EC50 (read off the curve) as the concentration needed to bring the measured effect to its halfway point. Read a low EC50 (read off the curve) as greater potency.
